Source: patent EP4817631A2 (AbbVie Deutschland GmbH & Co. KG, dated 2026)
Where a chain is given by its changes, count along the chain named.

T1: hRGMc expressed in 293HEK cells (human, UniProt Q6ZVN8 36-400)
T1 sequence: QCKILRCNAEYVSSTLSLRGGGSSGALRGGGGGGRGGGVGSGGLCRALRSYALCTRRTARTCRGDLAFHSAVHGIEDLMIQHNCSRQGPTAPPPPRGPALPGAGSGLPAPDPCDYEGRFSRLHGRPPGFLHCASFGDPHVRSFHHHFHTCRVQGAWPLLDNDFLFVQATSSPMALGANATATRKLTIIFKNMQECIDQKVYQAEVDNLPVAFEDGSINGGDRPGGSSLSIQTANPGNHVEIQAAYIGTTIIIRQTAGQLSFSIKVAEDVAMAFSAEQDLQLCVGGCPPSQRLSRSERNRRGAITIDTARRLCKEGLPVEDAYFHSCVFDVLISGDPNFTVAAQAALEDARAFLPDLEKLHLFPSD

T2: R &D hRGMc-His (human, UniProt Q6ZVN8 36-400)
T2 construct: Bought (R&D) His-tagged human RGMc; also called human RGMc; not shown: His tag
T2 sequence: T1 sequence

T3: hRGMa-His (human, UniProt Q96B86 48-422, limits assumed)
T3 construct: not shown: His tag
T3 sequence: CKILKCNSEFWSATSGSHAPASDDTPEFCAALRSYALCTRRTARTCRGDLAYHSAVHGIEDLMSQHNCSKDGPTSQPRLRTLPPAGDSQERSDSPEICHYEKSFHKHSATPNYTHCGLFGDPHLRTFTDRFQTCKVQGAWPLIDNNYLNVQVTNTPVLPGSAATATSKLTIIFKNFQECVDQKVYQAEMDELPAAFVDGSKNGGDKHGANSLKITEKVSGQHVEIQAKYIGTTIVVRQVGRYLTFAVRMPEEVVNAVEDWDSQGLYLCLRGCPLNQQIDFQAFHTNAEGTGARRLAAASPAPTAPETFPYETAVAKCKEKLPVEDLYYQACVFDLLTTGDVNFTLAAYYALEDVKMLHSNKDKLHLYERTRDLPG

B1: humanized antibody 5F9.23 (antibody, V domains shown)
VH: EVQLVESGGGLVQPGGSLRLSCAASGFTFSNYGMNWIRQAPGKGLEWIGMIYYDSSEKHYADSVKGRFTISRDNSKNTLYLQMNSLRAEDTAVYYCAKGTTPDYWGQGTMVTVSS
VL: DVVLTQSPLSLPVTLGQPASISCRSSQSLEYSDGYTFLEWFQQRPGQSPRLLIYEVSNRFSGVPDRFSGSGSGTDFTLKISRVEAEDVGVYYCFQATHDPLTFGQGTKLEIKR
notes: Humanized parental antibody; also called h5F9.23; H5F9.23*
B2: h5F9.AM4 (antibody, V domains shown)
VH: B1 VH
VL: DVVLTQSPLSLPVTLGQPASISCRSSQSLESSDGDTFLEWFQQRPGQSPRLLIYDVSTRFSGVPDRFSGSGSGTDFTLKISRVEAEDVGVYYCFQVTHDPVTFGQGTKLEIK
notes: also called RGMA-h5F9AM.4; RGMA-h5F9Vh7a/pJP29 1 hIgG1/K mut
B3: h5F9.AM8 (antibody, V domains shown)
VH: B1 VH
VL: B2 VL with S31E, D35Y, E39H, D55E, V96A, V101L
notes: also called RGMA-h5F9AM.8; RGMA-h5F9pJP297/pJP 298 hIgG1/K mut
B4: h5F9.AM11 (antibody, V domains shown)
VH: B1 VH with I37V, I48V, G49S
VL: B2 VL with S31D, D35G, T58S, V96A, V101L, T102S
notes: also called RGMA-h5F9AM; 11; RGMA-h5F9pJP302/pJP 303 hIgG1/K mut
B5: h5F9.AM9 (antibody, V domains shown)
VH: B1 VH with L11V, G16R, I37V, I48V, G49A, K98R
VL: B2 VL with E30A, S31D, E39H, D55A, T58H, V96A
notes: also called RGMA-h5F9AM.9; RGMA-h5F9pJP297/pJP 299 hIgG1/K mut

Target: T1, hRGMc expressed in 293HEK cells
Experiment: cell-based or functional assay

IC50, RGMc-mediated BMP reporter (BRE-luc) assay [nM]	Binder
17	B1

Target: T2, R &D hRGMc-His
Experiment: BIAcore; Ab captured on CM5 chip via anti-hIgG Fc Ab, antigen injected; 1:1 Langmuir fit

Kd [nM]	koff [s⁻¹]	kon [M⁻¹ s⁻¹]	Binder
0.13	0.00104	7.85e+06	B2
29		830000	B1
0.105	0.00039	3.95e+06	B3
0.285	0.0014	5.05e+06	B4
0.71	0.0107	1.55e+07	B5

Target: T3, hRGMa-His
Experiment: as above

Kd [nM]	koff [s⁻¹]	kon [M⁻¹ s⁻¹]	Binder
0.015	2.2e-05	1.4e+06	B2
0.031	2.7e-05	870000	B3
0.11	9.9e-05	930000	B4
0.47	0.0004	860000	B5

Target: Rat RGMa-His (rat) (UniProt D4A188)
Experiment: as above

Kd [nM]	koff [s⁻¹]	kon [M⁻¹ s⁻¹]	Binder
< 0.00094	< 1e-06	1.1e+06	B2
2.1	0.0017	830000	B1
< 0.0015	< 1e-06	660000	B3
0.074	5.2e-05	700000	B4
0.31	0.00021	680000	B5

Target: T3, hRGMa-His
Experiment: affinity KD as listed in Table 4 (equals BIAcore value of Table 5)

Kd [nM]	Binder
0.015	B2
0.031	B3
0.11	B4
0.47	B5

Target: Rat RGMa-His (rat) (UniProt D4A188)
Experiment: as above

Kd [nM]	Binder
< 0.00094	B2
< 0.0015	B3
0.074	B4
0.31	B5

Target: T2, R &D hRGMc-His
Experiment: affinity KD as listed in Table 4; method not given

Kd [nM]	Binder
0.12	B2
0.08	B3
0.25	B4
0.69	B5
